Assay results taken from the supplement of paper PMC9732359.
± gives the uncertainty stated by the source.

Test: protein stability index of a GFP-peptide fusion (yeast GPS) (PSI 1-4); higher = more stable; sorted into four equal gates, so the index is relative within each strain
How it was run: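 Tiled 17-residue yeast protein peptides were fused downstream of GFP in a plasmid that also expresses Cherry, and the pooled library was carried in yeast. Mid-log cultures in leucine-free medium were sorted into four equal gates by GFP/Cherry fluorescence ratio, and plasmids from each gate were PCR-amplified and Illumina-sequenced, with reads assigned to strains by barcodes. The protein stability index for each peptide was each gate's read frequency times its gate number, summed.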

Sequence	protein stability index (doa10∆)	protein stability index (pdr5∆)	protein stability index (san1∆)	protein stability index (ubr1∆)
FDNVASVFMPLIFIACN [ECM29]	2.9 ± 0.048	2.72 ± 0.038	2.57 ± 0.045	2.71 ± 0.032
VNKYGLRADKLYEKLKQ [ISW2]	1.52 ± 0.13	1.5 ± 0.11	1.6 ± 0.13	1.47 ± 0.15
IVTGNLVLDLLTWLSSF [IRR1]	2.63 ± 0.061	2.66 ± 0.041	2.05 ± 0.07	2.29 ± 0.039
DFPELKPYKQVKQIAPA [FAS2]	2.29 ± 0.066	2.46 ± 0.069	2.58 ± 0.07	2.66 ± 0.057
IDEDKLYPSFKPIYKDT [SSN2]	2.99 ± 0.095	3.04 ± 0.11	3 ± 0.053	3.17 ± 0.092
KDKFNQIPLHRAASVGS [NAS6]	1.81 ± 0.074	2.13 ± 0.079	2.05 ± 0.15	2.26 ± 0.082
ISLLCKNFKGIEEIEYN [PCI8]	2.94 ± 0.082	3.31 ± 0.075	3.11 ± 0.04	3.01 ± 0.061
STKTGTPSDLSESGSKL [POP1]	3.4 ± 0.1	3.35 ± 0.088	3.24 ± 0.055	3.35 ± 0.048
QTYINQELGFCELLKLT [SSN2]	2.81 ± 0.24	2.45 ± 0.12	2.39 ± 0.17	2.67 ± 0.093
RKVVFPFQLDVADMLTP [UBP6]	2.29 ± 0.11	2.02 ± 0.12	2.57 ± 0.078	2.05 ± 0.096
NNDKREIQEELERFNKR [SMC1]	2.49 ± 0.24	3.52 ± 0.13	3.4 ± 0.062	3.27 ± 0.068
SDKTIVPTSIQTKRWPT [SIN4]	2.32 ± 0.059	2.6 ± 0.055	2.35 ± 0.054	2.77 ± 0.048
QRKEIKDRISSCSSKEK [SMC4]	2.28 ± 0.1	2.7 ± 0.063	2.49 ± 0.12	2.89 ± 0.09
VEWINPSRRERRREQTT [ISW2]				3.39 ± 0.15
SGSTEKAFKICEAAVEI [SIR3]	2.97 ± 0.11	2.71 ± 0.11	2.84 ± 0.15	3.18 ± 0.16
TQLKKRAVSGVELRIYV [POP7]	2.66 ± 0.13	2.23 ± 0.11	2.44 ± 0.14	2.78 ± 0.16
ALDTVTNVLNFIKLQKI [FAS1]	2.76 ± 0.069	2.04 ± 0.067	2.14 ± 0.13	2.15 ± 0.055
KKQKLIEEQDKKVQALQ [ITC1]	3.06 ± 0.094	2.6 ± 0.079	2.61 ± 0.087	2.82 ± 0.068
KTAKEVAGAIRAGIIIA [RPS2]	2.49 ± 0.14	3.16 ± 0.17	2.69 ± 0.24	3.07 ± 0.1
ALEEAKLSDNISICMIL [YDL116W/NUP84]	2.87 ± 0.076	3.02 ± 0.073	3.04 ± 0.06	3.21 ± 0.043
HMATALQIAQLTLKHRQ [RPN10]	1.58 ± 0.13	1.8 ± 0.084	1.59 ± 0.11	1.62 ± 0.068
WKFKSLIEILRLRALQL [RRI2]	1.45 ± 0.093	1.21 ± 0.075	1.14 ± 0.13	1.08 ± 0.075
KTFNKIQSQVFESLYNS [BRR2]	1.57 ± 0.061	2.04 ± 0.064	1.25 ± 0.12	1.73 ± 0.054
ILNAKYTKETYQSRGID [RPN6]	2.96 ± 0.062	3.04 ± 0.066	2.97 ± 0.06	2.8 ± 0.056
KGKARLGTLVNQKTSAV [RPL8A]	2.65 ± 0.078	2.38 ± 0.076	3.15 ± 0.083	2.94 ± 0.057
VLTQLTALALKYLIKYN [CSI1]	2.37 ± 0.11	2.75 ± 0.08	2.55 ± 0.11	2.47 ± 0.074
FAISMGYLFKVSALDKC [ECM29]		1.67 ± 0.21	1.91 ± 0.23	2.13 ± 0.13

Sequence	protein stability index (doa10∆)	protein stability index (pdr5∆)	protein stability index (san1∆)	protein stability index (ubr1∆)
DSVAAIGIPVNKASLAQ [QCR2]	2.63 ± 0.056	2.61 ± 0.052	2.52 ± 0.081	2.82 ± 0.042
LQYYILEYMNTARINNR [RRI2]	2.12 ± 0.15	1.37 ± 0.097	1.96 ± 0.14	1.93 ± 0.12
TQVRVEFLEDTSRTIVR [RPS28A]	3.37 ± 0.24	3.06 ± 0.13	2.91 ± 0.095	3.3 ± 0.14
PKNSSSPVQIAFNRFMA [SSN8]	1.51 ± 0.053	1.74 ± 0.05	1.52 ± 0.1	1.57 ± 0.054
RPKKVKLEGSENSEPPA [SNF2]	3.13 ± 0.095	2.95 ± 0.08	3.33 ± 0.079	3.28 ± 0.063
THLHEALDIVCSDFVKI [NUT1]	2.28 ± 0.089	2.48 ± 0.063	2.15 ± 0.11	1.92 ± 0.078
AFPKDDRSKPVALTSFL [RPL3]	2.77 ± 0.1	2.75 ± 0.083	3.33 ± 0.054	1.95 ± 0.045
QDHFHRLNYLYQISAYQ [RPR2]	2 ± 0.041	2.43 ± 0.04	2.42 ± 0.044	2.43 ± 0.026
VVFTRLVQRCWQWGNDR [CSN12]	1.42 ± 0.092	1.4 ± 0.08	1.58 ± 0.14	1.52 ± 0.058
KPYKQVKQIAPAELEGL [FAS2]	2.36 ± 0.061	2.14 ± 0.055	2.47 ± 0.083	1.9 ± 0.053
LCLTEFENCYLEGNDIH [FAS1]	3.02 ± 0.089	3.26 ± 0.076	3.2 ± 0.13	2.95 ± 0.1
TKQRLDAYYDLELRNSV [PRP8]	2.64 ± 0.046	2.93 ± 0.039	2.86 ± 0.039	2.74 ± 0.035
LYSVKFAPAHLGLKLAC [YGL100W/SEH1]	2.73 ± 0.074	1.98 ± 0.049	2.72 ± 0.072	2.79 ± 0.046
LRPLFTRYELYIKNILE [YLR335W/NUP2]	1.6 ± 0.053	1.88 ± 0.044	1.8 ± 0.081	1.93 ± 0.033
ILDGLTVRLVNLFSSTG [SRB2]	3.1 ± 0.15	3.03 ± 0.16		
LNLQFKAKVDDLVLGKP [YLR335W/NUP2]	2.85 ± 0.11	3.39 ± 0.18	3.34 ± 0.067	3.3 ± 0.078
VAEGKSKQDASPKPYAV [RPL8A]	3.04 ± 0.12	3.29 ± 0.059	3.04 ± 0.07	3.02 ± 0.058
PVVINLDAKNKVFVPPK [RPO31]	2.93 ± 0.12	3.13 ± 0.13	3.33 ± 0.11	2.95 ± 0.15
ISFLEPINLKFLQGESP [YMR129W/POM152]	2.6 ± 0.073	2.94 ± 0.11		2.67 ± 0.15
MFFIKDLSLNITLHPSF [RPB7]		1.97 ± 0.16		2.24 ± 0.26
PSSMATLLKNLRKKLNF [YJR042W/NUP85]	2.91 ± 0.078	2.73 ± 0.075	2.91 ± 0.079	2.89 ± 0.066
QNKEIKAERVEDQKVVD [RPL6A]	3.4 ± 0.067	3.44 ± 0.066	3.33 ± 0.041	3.35 ± 0.052
AQGLLHLGKGTMTMDVF [RPN1]	2.47 ± 0.065	2.61 ± 0.066	2.15 ± 0.081	1.89 ± 0.058
TDDYFEELRDLYQTYHV [FAS1]	3.09 ± 0.22	2.69 ± 0.076	3.33 ± 0.15	3.37 ± 0.11
QLVLRGLLSQAIGCIER [YJR042W/NUP85]	1.98 ± 0.11	2.15 ± 0.073	1.71 ± 0.099	2.3 ± 0.076
EKGSWEQLSPQDVLQML [BRR2]	3.05 ± 0.12	3.27 ± 0.15	3.42 ± 0.12	3.03 ± 0.088
